This is an account of results in paper PMC10397247.

Read-outs that look alike come from different tables or passages of the source.

Test in all cases: two-hybrid library CCmax;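 note: natural log of median RNA to DNA barcode read ratio; higher means stronger binding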
One assay concerns the target T1, 4H2742-AA.
T1 chain: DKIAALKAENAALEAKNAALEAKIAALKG
The following applies: mean of both orientations.

The next assay addresses T2, 4H3666-AA.
T2 chain: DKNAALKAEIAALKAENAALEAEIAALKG
The settings on record: mean of both orientations.

The target of the next assay is T3, 4H3628-AA.
T3 chain: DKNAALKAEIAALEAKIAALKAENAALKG
The following applies: mean of both orientations.

Another assay concerns the target T4, 4H497-AA.
T4 chain: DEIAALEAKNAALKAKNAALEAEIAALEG
The settings on record: mean of both orientations.

Another assay has as its target T5, 4H1349-AA.
T5 chain: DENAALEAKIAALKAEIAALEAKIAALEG
The following applies: mean of both orientations.

The target of the next assay is T6, 4H1454-AA.
T6 chain: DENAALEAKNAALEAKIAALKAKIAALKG
The following applies: mean of both orientations.

In a further assay the target is T7, 4H3102-AA.
T7 chain: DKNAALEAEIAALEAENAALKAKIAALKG
The settings on record: mean of both orientations.

Another assay deals with T8, 4H3920-AA.
T8 chain: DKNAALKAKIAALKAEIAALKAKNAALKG
The following applies: mean of both orientations.

A further assay addresses T9, P3-AA.
T9 chain: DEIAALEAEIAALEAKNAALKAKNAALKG
The settings on record: mean of both orientations.

The next assay has as its target T10, P6-AA-12HGe-D.
T10 chain: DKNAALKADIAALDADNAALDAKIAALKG
The following applies: mean of both orientations.

For a further assay, the target named is T11, zCON9_B.
T11 chain: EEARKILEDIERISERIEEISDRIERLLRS
The settings on record: mean of both orientations.

The target of a further assay is T12, 4H_APH4.
T12 chain: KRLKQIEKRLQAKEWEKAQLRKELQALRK

The target in a further assay is T13, zCON9_D.
T13 chain: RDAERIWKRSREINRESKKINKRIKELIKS
The following applies: mean of both orientations.

The target in the next assay is T14, P6-AA-12HGe-H.
T14 chain: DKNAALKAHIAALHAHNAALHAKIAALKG
The following applies: mean of both orientations.

Another assay addresses T15, P2-AA.
T15 chain: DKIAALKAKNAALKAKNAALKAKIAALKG
The settings on record: mean of both orientations.

The target of another assay is T16, P6-AA-1HAA-R.
T16 chain: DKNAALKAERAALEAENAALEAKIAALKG
The following applies: mean of both orientations.

In a further assay the target is T17, 4H2078-AA.
T17 chain: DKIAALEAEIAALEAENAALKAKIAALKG
The following applies: mean of both orientations.

The target of a further assay is T18, 4H3354-AA.
T18 chain: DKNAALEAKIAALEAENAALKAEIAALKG
The settings on record: mean of both orientations.

The target in another assay is T19, APC2405-AA.
T19 chain: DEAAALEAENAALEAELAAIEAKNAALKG
The settings on record: mean of both orientations.

The next assay has as its target T20, APC4436-AA.
T20 chain: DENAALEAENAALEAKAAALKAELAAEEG
The settings on record: mean of both orientations.

In another assay the target is T21, 4H953-AA.
T21 chain: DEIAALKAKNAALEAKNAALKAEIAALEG
The following applies: mean of both orientations.

For another assay, the target named is T22, 4H2290-AA.
T22 chain: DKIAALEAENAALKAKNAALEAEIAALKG
The settings on record: mean of both orientations.

Another assay deals with T23, 4H3330-AA.
T23 chain: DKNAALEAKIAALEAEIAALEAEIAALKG
The following applies: mean of both orientations.

The target in another assay is T24, APC1015-AA.
T24 chain: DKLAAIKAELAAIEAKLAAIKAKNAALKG

The target in a further assay is T25, P6-AA-12HAA-K.
T25 chain: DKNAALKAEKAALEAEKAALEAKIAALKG
The following applies: mean of both orientations.

In the next assay the target is T26, 4H2622-AA.
T26 chain: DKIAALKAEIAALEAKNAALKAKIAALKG
The settings on record: mean of both orientations.

In another assay the target is T27, P6-AA-12HAA-V.
T27 chain: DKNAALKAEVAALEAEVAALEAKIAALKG
The settings on record: mean of both orientations.

A further assay has as its target T28, P6-AA-12HAA-E.
T28 chain: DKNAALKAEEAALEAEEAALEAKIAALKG
The settings on record: mean of both orientations.

For a further assay, the target named is T29, 4H3619-AA.
T29 chain: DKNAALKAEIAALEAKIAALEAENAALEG
The following applies: mean of both orientations.

A further assay deals with T30, 4H324-AA.
T30 chain: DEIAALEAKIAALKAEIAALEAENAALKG
The settings on record: mean of both orientations.

The target of the next assay is T31, 4H2575-AA.
T31 chain: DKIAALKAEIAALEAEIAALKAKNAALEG

The target in the next assay is T32, 4H233-AA.
T32 chain: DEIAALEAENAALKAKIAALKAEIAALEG
The following applies: mean of both orientations.

The next assay addresses T33, 4H2513-AA.
T33 chain: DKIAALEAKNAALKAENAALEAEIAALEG
The settings on record: mean of both orientations.

In a further assay the target is T34, 4H2211-AA.
T34 chain: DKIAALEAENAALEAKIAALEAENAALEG
The following applies: mean of both orientations.

The next assay addresses T35, 4H2873-AA.
T35 chain: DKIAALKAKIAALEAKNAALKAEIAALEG
The following applies: mean of both orientations.

In the next assay the target is T36, 4H1710-AA.
T36 chain: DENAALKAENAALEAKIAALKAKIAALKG
The following applies: mean of both orientations.

The next assay has as its target T37, 4H3134-AA.
T37 chain: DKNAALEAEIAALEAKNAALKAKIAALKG
The settings on record: mean of both orientations.

In the next assay the target is T38, 4H2608-AA.
T38 chain: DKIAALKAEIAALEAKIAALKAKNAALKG
The settings on record: mean of both orientations.

Another assay deals with T39, P5-AA-1HAA-R.
T39 chain: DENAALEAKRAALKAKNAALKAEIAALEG
The following applies: mean of both orientations.

Another assay concerns the target T40, P5-AA-12HGe-S.
T40 chain: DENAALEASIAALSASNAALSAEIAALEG
The following applies: mean of both orientations.

The target in the next assay is T41, P5-AA-12HGe-Y.
T41 chain: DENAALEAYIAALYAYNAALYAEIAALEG
The settings on record: mean of both orientations.

The target of a further assay is T42, P5-AA-12HGe-M.
T42 chain: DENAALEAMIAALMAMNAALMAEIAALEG
The settings on record: mean of both orientations.

B1: 4H1064-AA (peptide)
chain: DENAALEAEIAALEAKIAALEAKNAALKG
Turning to B1, the interaction score with 4H2742-AA is -1.78; with 4H3666-AA, -1.27; with 4H3628-AA, 1.07; with 4H497-AA, -1.3; with 4H1349-AA it was 0.539; in the assay with 4H1454-AA, 0.729. Moreover, the interaction score with 4H3102-AA is -1.27; in the assay with 4H3920-AA, 1.13.

B2: 4H1401-AA (peptide)
chain: DENAALEAKIAALKAKNAALKAEIAALEG
B2: the interaction score with P3-AA was -1.1; in the assay with P6-AA-12HGe-D, -0.647; with zCON9_B it was -0.316; with 4H_APH4, -1.85; with zCON9_D, -1.37; with P6-AA-12HGe-H, -1.23. Besides, the interaction score with P2-AA is -1.76; with P6-AA-1HAA-R, 1.83; in the assay with 4H2078-AA, 1.93.

B3: 4H1845-AA (peptide)
chain: DENAALKAKIAALEAKNAALEAKIAALEG
Turning to B3, the interaction score is -1.37 with 4H3354-AA; -1.12 in the assay with APC2405-AA; -1.83 with APC4436-AA; -1.52 with 4H953-AA; -1.92 in the assay with 4H2290-AA; -1.3 with 4H3330-AA. In addition, in the assay with APC1015-AA, the interaction score is -1.28.

B4: 4H1385-AA (peptide)
chain: DENAALEAKIAALKAKIAALKAEIAALEG
Take B4: the interaction score in the assay with P6-AA-12HAA-K was 2.03; with 4H2622-AA it was 1.24; in the assay with P6-AA-12HAA-V, 2.15; with P6-AA-12HAA-E, 2.36.

B5: 4H249-AA (peptide)
chain: DEIAALEAENAALKAKNAALKAEIAALEG
Regarding B5, the interaction score with 4H3619-AA was -1.97; with 4H324-AA, -1.59.

B6: 4H2165-AA (peptide)
chain: DKIAALEAEIAALKAKNAALEAKIAALEG
As to B6, in the assay with 4H2575-AA (mean of both orientations), the interaction score was -1.19.

B7: 4H1257-AA (peptide)
chain: DENAALEAENAALKAKIAALKAEIAALEG
Turning to B7, the interaction score in the assay with 4H3354-AA was -1.6; in the assay with 4H953-AA, -1.45; in the assay with 4H1349-AA, 0.365; with 4H1454-AA, -0.555.

B8: 4H1350-AA (peptide)
chain: DENAALEAKIAALKAEIAALEAKIAALKG
Turning to B8, the interaction score with 4H233-AA is 0.257; in the assay with 4H2513-AA it was -1.31; with 4H2211-AA, -1.32; with 4H2873-AA it was 1.38; with 4H2622-AA, 1.12; with 4H1710-AA it was 0.556. In addition, the interaction score is 0.186 in the assay with 4H3134-AA and 1.38 with 4H2608-AA.

B9: 4H3606-AA (peptide)
chain: DKNAALKAEIAALEAENAALEAKIAALKG
Take B9: the interaction score was -0.421 in the assay with P3-AA; -0.854 with zCON9_B; -1.64 with 4H_APH4; -1.76 with zCON9_D; 0.917 with P2-AA; 2 with P5-AA-1HAA-R. For the same molecule, the results for the interaction score with P5-AA-12HGe-S, with P5-AA-12HGe-Y and with P5-AA-12HGe-M were -0.516, 2.52 and 1.77, respectively.

B10: 4H1153-AA (peptide)
chain: DENAALEAENAALEAEIAALEAEIAALEG
In the case of B10, the values for the interaction score with 4H2575-AA and with 4H2078-AA were -0.264 and -0.975, respectively.
